Experimental findings from EP1188828A1 are described below.

By Ki is commonly meant a measure of affinity in units of concentration, obtained from inhibition or displacement. A high value points to a looser hold on the target. Usually Kd stands for the free concentration of one partner at which half of the binding sites on the other are occupied at equilibrium, for simple one-to-one binding. Low values mean a tighter complex, high ones a looser complex.

Test [1] deals with rat Reg-binding protein (rat Reg receptor, rat homologue of EXTL3/EXTR1) with N-terminal HA tag (rat). Briefly: displacement of ^125I-labeled rat Reg protein (competitor tracer) from CHO cells stably expressing rat Reg receptor.
The target is the same in test [2]. Kind of test: cell-based or functional assay.
Test [3] shares this target. Kind of test: radioligand binding on CHO cells stably expressing HA-tagged rat Reg receptor.
Test [4] shares this target. Briefly: displacement of ^125I-labeled rat Reg protein from CHO cells stably expressing rat Reg receptor.

B1: human REG protein (REG Iα) (ligand, UniProt P05451 23-166, looked up)
chain: QEAQTELPQARISCPEGTNAYRSYCYYFNEDRETWVDADLYCQNMNSGNLVSVLTQAEGAFVASLIKESGTDDFNVWIGLHDPKKNRRWHWSSGSLVSYKSWGIGAPSSVNPGYCVSLTSSTGFQKWKDVPCEDKFSFVCKFKN
In test [1], B1 showed a Ki of 7.41 nM.

B2: rat Reg protein (Reg I) (ligand, UniProt P10758 22-165, looked up)
chain: QEAEEDLPSARITCPEGSNAYSSYCYYFMEDHLSWAEADLFCQNMNSGYLVSVLSQAEGNFLASLIKESGTTAANVWIGLHDPKNNRRWHWSSGSLFLYKSWDTGYPNNSNRGYCVSVTSNSGYKKWRDNSCDAQLSFVCKFKA
modifications: [^125I] label by Bolton-Hunter reagent where used as the labelled tracer; unlabeled where used as competitor
In test [2], B2 returned a BrdU incorporation of CHO cell line #3 stably expressing the Reg receptor of 4.01 nM and a BrdU incorporation of CHO cell line #22 stably expressing the Reg receptor of 1.11 nM. In test [3], this molecule showed a dissociation constant (Kd) of 4.41 nM. This molecule yielded an inhibition constant (Ki) in test [4] of 1.61 nM.
